# Tested on: [^3H]NECA-bound A2AR
# Test: Thermostability assay of detergent-solubilised receptor with [3H]NECA bound (ligand plus format)
# Type: physicochemical, human
# Details: not given
# Procedure: […]. After solubilisation in DDM, A2AR was bound to Ni^2+-NTA resin, washed to reduce the DDM concentration and then eluted (see Methods). […]. An aliquot of E. coli cells (14 mL) was thawed on ice and resupended in 500 μL of buffer A [50 mM Tris–HCl (pH 7.4), 0.4 M NaCl, 250 μg/mL lysozyme (Sigma) and 1 mg/mL DNase I (Sigma), supplemented with complete ethylenediaminetetraacetic acid (EDTA)-free Protease inhibitor cocktail (Roche)] and incubated for 1 h at 4 °C. Samples were then sonicated for 1 min at 4 °C using a cup-horn sonicator. The receptors were solubilised by adding 1% DDM and incubated for 1 h at 4 °C. Insoluble material was removed by centrifugation (5 min, 13,000g, 4 °C). The solubilised receptors were partially purified with Ni-NTA agarose (Qiagen). Agarose beads (300 μL) pre-equilibrated in buffer A were added to 700 μL of solubilised receptor. […].
# The sample was incubated for 45 min at 4 °C, then 30 min at the specified temperature and then 30 min at 4 °C. Receptor-bound and free radioligands were separated as previously described on mini gel-filtration columns.[26] Receptor-bound ligands were transferred to a 96-well plate (PerkinElmer) and mixed with 200 μL of Optiphase supermix (PerkinElmer). The bound ^3H-labeled ligand was determined using a 1450 Microbeta Trilux counter (1 min per sample).
# For all the thermostabilisation studies carried out in our laboratory, the apparent Tm is the temperature for which 50% of the solubilised receptor remains folded after 30 min of incubation. The rate constant of the protein denaturation is a function of the temperature, and consequently, thermal denaturation of a protein can be compared to a chemical reaction for which the rate of the reaction is dependant on the temperature. Arrhenius established that any chemical reaction is temperature dependant. […]. The reference measurement representing the total binding activity of the sample A0 was considered to be measured at 4 °C. From the graphical representation t = Log10(t1/2) (Fig. 2c), we could extract a half-life for each construct at any temperature to define the improvement in stability of the various mutants compared to WT A2AR.
Molecule,"Apparent Tm in DDM, Single measurement [°C]","Apparent Tm in DM, Single measurement [°C]"
"GL8: A2AR mutant L48A-F79A (protein, UniProt P29274 1-412, looked up, variant L48A F79A) Adenosine receptor A2a: MPIMGSSVYITVELAIAVLAILGNVLVCWAVWLNSNLQNVTNYFVVSAAAADIAVGVLAIPFAITISTGFCAACHGCLAIACFVLVLTQSSIFSLLAIAIDRYIAIRIPLRYNGLVTGTRAKGIIAICWVLSFAIGLTPMLGWNNCGQPKEGKNHSQGCGEGQVACLFEDVVPMNYMVYFNFFACVLVPLLLMLGVYLRIFLAARRQLKQMESQPLPGERARSTLQKEVHAAKSLAIIVGLFALCWLPLHIINCFTFFCPDCSHAPLWLMYLAIVLSHTNSVVNPFIYAYRIREFRQTFRKIIRSHVLRQQEPFKAAGTSARVLAAHGSDGEQVSLRLNGHPPGVWANGSAPHPERRPNGYALGLVSGGSAQESQGNTGLPDVELLSHELKGVCPEPPGLDDPLAQDGAGVS",45.5,–
"GL11: A2AR mutant L48A-S90A (protein, UniProt P29274 1-412, looked up, variant L48A S90A) Adenosine receptor A2a: MPIMGSSVYITVELAIAVLAILGNVLVCWAVWLNSNLQNVTNYFVVSAAAADIAVGVLAIPFAITISTGFCAACHGCLFIACFVLVLTQASIFSLLAIAIDRYIAIRIPLRYNGLVTGTRAKGIIAICWVLSFAIGLTPMLGWNNCGQPKEGKNHSQGCGEGQVACLFEDVVPMNYMVYFNFFACVLVPLLLMLGVYLRIFLAARRQLKQMESQPLPGERARSTLQKEVHAAKSLAIIVGLFALCWLPLHIINCFTFFCPDCSHAPLWLMYLAIVLSHTNSVVNPFIYAYRIREFRQTFRKIIRSHVLRQQEPFKAAGTSARVLAAHGSDGEQVSLRLNGHPPGVWANGSAPHPERRPNGYALGLVSGGSAQESQGNTGLPDVELLSHELKGVCPEPPGLDDPLAQDGAGVS",46,–
"GL17: A2AR mutant L48A-F242A (protein, UniProt P29274 1-412, looked up, variant L48A F242A) Adenosine receptor A2a: MPIMGSSVYITVELAIAVLAILGNVLVCWAVWLNSNLQNVTNYFVVSAAAADIAVGVLAIPFAITISTGFCAACHGCLFIACFVLVLTQSSIFSLLAIAIDRYIAIRIPLRYNGLVTGTRAKGIIAICWVLSFAIGLTPMLGWNNCGQPKEGKNHSQGCGEGQVACLFEDVVPMNYMVYFNFFACVLVPLLLMLGVYLRIFLAARRQLKQMESQPLPGERARSTLQKEVHAAKSLAIIVGLAALCWLPLHIINCFTFFCPDCSHAPLWLMYLAIVLSHTNSVVNPFIYAYRIREFRQTFRKIIRSHVLRQQEPFKAAGTSARVLAAHGSDGEQVSLRLNGHPPGVWANGSAPHPERRPNGYALGLVSGGSAQESQGNTGLPDVELLSHELKGVCPEPPGLDDPLAQDGAGVS",39.5,–
"GL9: A2AR mutant L48A-F83A (protein, UniProt P29274 1-412, looked up, variant L48A F83A) Adenosine receptor A2a: MPIMGSSVYITVELAIAVLAILGNVLVCWAVWLNSNLQNVTNYFVVSAAAADIAVGVLAIPFAITISTGFCAACHGCLFIACAVLVLTQSSIFSLLAIAIDRYIAIRIPLRYNGLVTGTRAKGIIAICWVLSFAIGLTPMLGWNNCGQPKEGKNHSQGCGEGQVACLFEDVVPMNYMVYFNFFACVLVPLLLMLGVYLRIFLAARRQLKQMESQPLPGERARSTLQKEVHAAKSLAIIVGLFALCWLPLHIINCFTFFCPDCSHAPLWLMYLAIVLSHTNSVVNPFIYAYRIREFRQTFRKIIRSHVLRQQEPFKAAGTSARVLAAHGSDGEQVSLRLNGHPPGVWANGSAPHPERRPNGYALGLVSGGSAQESQGNTGLPDVELLSHELKGVCPEPPGLDDPLAQDGAGVS",43.5,–
"GL19: A2AR mutant L48A-V282A (protein, UniProt P29274 1-412, looked up, variant L48A V282A) Adenosine receptor A2a: MPIMGSSVYITVELAIAVLAILGNVLVCWAVWLNSNLQNVTNYFVVSAAAADIAVGVLAIPFAITISTGFCAACHGCLFIACFVLVLTQSSIFSLLAIAIDRYIAIRIPLRYNGLVTGTRAKGIIAICWVLSFAIGLTPMLGWNNCGQPKEGKNHSQGCGEGQVACLFEDVVPMNYMVYFNFFACVLVPLLLMLGVYLRIFLAARRQLKQMESQPLPGERARSTLQKEVHAAKSLAIIVGLFALCWLPLHIINCFTFFCPDCSHAPLWLMYLAIVLSHTNSAVNPFIYAYRIREFRQTFRKIIRSHVLRQQEPFKAAGTSARVLAAHGSDGEQVSLRLNGHPPGVWANGSAPHPERRPNGYALGLVSGGSAQESQGNTGLPDVELLSHELKGVCPEPPGLDDPLAQDGAGVS",40,–
"GL26: A2AR mutant L48A-Q89A-T65A-A54L (protein, UniProt P29274 1-412, looked up, variant L48A Q89A T65A A54L) Adenosine receptor A2a: MPIMGSSVYITVELAIAVLAILGNVLVCWAVWLNSNLQNVTNYFVVSAAAADILVGVLAIPFAIAISTGFCAACHGCLFIACFVLVLTASSIFSLLAIAIDRYIAIRIPLRYNGLVTGTRAKGIIAICWVLSFAIGLTPMLGWNNCGQPKEGKNHSQGCGEGQVACLFEDVVPMNYMVYFNFFACVLVPLLLMLGVYLRIFLAARRQLKQMESQPLPGERARSTLQKEVHAAKSLAIIVGLFALCWLPLHIINCFTFFCPDCSHAPLWLMYLAIVLSHTNSVVNPFIYAYRIREFRQTFRKIIRSHVLRQQEPFKAAGTSARVLAAHGSDGEQVSLRLNGHPPGVWANGSAPHPERRPNGYALGLVSGGSAQESQGNTGLPDVELLSHELKGVCPEPPGLDDPLAQDGAGVS",–,46

# Same assay, conditions: DM
row,Molecule,Increase in stability versus WT receptor in DM [°C]
1,"GL26: A2AR mutant L48A-Q89A-T65A-A54L (protein, UniProt P29274 1-412, looked up, variant L48A Q89A T65A A54L) Adenosine receptor A2a: MPIMGSSVYITVELAIAVLAILGNVLVCWAVWLNSNLQNVTNYFVVSAAAADILVGVLAIPFAIAISTGFCAACHGCLFIACFVLVLTASSIFSLLAIAIDRYIAIRIPLRYNGLVTGTRAKGIIAICWVLSFAIGLTPMLGWNNCGQPKEGKNHSQGCGEGQVACLFEDVVPMNYMVYFNFFACVLVPLLLMLGVYLRIFLAARRQLKQMESQPLPGERARSTLQKEVHAAKSLAIIVGLFALCWLPLHIINCFTFFCPDCSHAPLWLMYLAIVLSHTNSVVNPFIYAYRIREFRQTFRKIIRSHVLRQQEPFKAAGTSARVLAAHGSDGEQVSLRLNGHPPGVWANGSAPHPERRPNGYALGLVSGGSAQESQGNTGLPDVELLSHELKGVCPEPPGLDDPLAQDGAGVS",21.5
